From PMC10570131, “TXNL1 has dual functions as a redox active thioredoxin-like protein as well as an ATP- and redox-independent chaperone” (Redox Biology, 2023)

Target: the molecule itself
Test: non-reducing SDS-PAGE with Western blot; pure control proteins and chromatography fractions separated on SDS-PAGE without or with DTT, blotted with anti-TXNL1 or anti-Trx1

| Protein | binding result |
| --- | --- |
| Thioredoxin (Trx1), human (natural protein, UniProt P10599-1 1-105, looked up, also called TXN; not shown: His6, N-terminal, cleaved; GFP, N-terminal, cleaved; SUMO, N-terminal, cleaved) MVKQIESKTAFQEALDAAGDKLVVVDFSATWCGPCKMIKPFFHSLSEKYSNVIFLEVDVDDCQDVASECEVKCMPTFQFFKKGQKVGEFSGANKEKLEATINELV | binds |
| Thioredoxin-like protein 1 (TXNL1), human, wildtype (natural protein, UniProt O43396 1-289, looked up, human TXNL1, open reading frame synthesised codon-optimised for E. coli; N-terminal Trx-fold domain (active site CGPC) and C-terminal PITH domain; also called TRP32; thioredoxin related protein of 32 kDa; not shown: His6, N-terminal, cleaved; GFP, N-terminal, cleaved; SUMO, N-terminal, cleaved) MVGVKPVGSDPDFQPELSGAGSRLAVVKFTMRGCGPCLRIAPAFSSMSNKYPQAVFLEVDVHQCQGTAATNNISATPTFLFFRNKVRIDQYQGADAVGLEEKIKQHLENDPGSNEDTDIPKGYMDLMPFINKAGCECLNESDEHGFDNCLRKDTTFLESDCDEQLLITVAFNQPVKLYSMKFQGPDNGQGPKYVKIFINLPRSMDFEEAERSEPTQALELTEDDIKEDGIVPLRYVKFQNVNSVTIFVQSNQGEEETTRISYFTFIGTPVQATNMNDFKRVVGKKGESH | binds |
